Literature values, collected in US8623366B2, “Methods for treating visceral pain by administering antagonist antibodies directed against calcitonin gene-related peptide” (Labrys Biologics, Inc., priority 2009, dated 2014).

T1: α-rat CGRP (Rattus norvegicus, UniProt P01256)
T1 sequence (P01256 83-119 limits assumed): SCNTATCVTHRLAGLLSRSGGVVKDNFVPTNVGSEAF

T2: human α-CGRP (Homo sapiens, UniProt P06881)
T2 sequence (P06881 83-119 limits assumed): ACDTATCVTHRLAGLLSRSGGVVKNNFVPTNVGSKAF


Assays:
α-rat CGRP = biological target: T1, α-rat CGRP; conditions: Table 6 reproduced from WO2007/054809; cited from earlier work
human α-CGRP = biological target: T2, human α-CGRP; conditions: Table 6 reproduced from WO2007/054809; cited from earlier work

| Molecule | Kd (α-rat CGRP) | Kd (human α-CGRP) |
| --- | --- | --- |
| M55: G1 variant: L1 R28N T30A; L2 L56S; H2 E54K A57N S58E E64D; HC-FW3 L99T A100V (antibody, chains of the INN, looked up, variant L:R28N L:T30A L:L56S H:E54K H:A57N H:S58E H:E64D H:L99T H:A100V, V domains shown) VH: EVQLVESGGGLVQPGGSLRLSCAASGFTFSNYWISWVRQAPGKGLEWVAEIRSKSDNEATHYADAVKGRFTISRDNAKNSLYLQMNSLRAEDTAVYYCTVYFDYGLAIQNYWGQGTLVTVSS VL: EIVLTQSPATLSLSPGERATLSCKASKNVATYVSWYQQKPGQAPRLLIYGASNRYSGIPARFSGSGSGTDFTLTISSLEPEDFAVYYCSQSYNYPYTFGQGTKLEIK | 325 nM | 2.99 nM |
| M65: G1 variant: L1 R28N T30G; L2 G50A L56I; H2 E54K A57C; HC-FW3 L99T A100V (antibody, chains of the INN, looked up, variant L:R28N L:T30G L:G50A L:L56I H:E54K H:A57C H:L99T H:A100V, V domains shown) VH: EVQLVESGGGLVQPGGSLRLSCAASGFTFSNYWISWVRQAPGKGLEWVAEIRSKSDCSATHYAEAVKGRFTISRDNAKNSLYLQMNSLRAEDTAVYYCTVYFDYGLAIQNYWGQGTLVTVSS VL: EIVLTQSPATLSLSPGERATLSCKASKNVGTYVSWYQQKPGQAPRLLIYAASNRYIGIPARFSGSGSGTDFTLTISSLEPEDFAVYYCSQSYNYPYTFGQGTKLEIK | 226 nM | 5.02 nM |
| M78: G1 variant: L1 R28N T30S; L2 G50A L56T; H2 E54K A57N S58T; HC-FW3 L99T A100V (antibody, chains of the INN, looked up, variant L:R28N L:T30S L:G50A L:L56T H:E54K H:A57N H:S58T H:L99T H:A100V, V domains shown) VH: EVQLVESGGGLVQPGGSLRLSCAASGFTFSNYWISWVRQAPGKGLEWVAEIRSKSDNTATHYAEAVKGRFTISRDNAKNSLYLQMNSLRAEDTAVYYCTVYFDYGLAIQNYWGQGTLVTVSS VL: EIVLTQSPATLSLSPGERATLSCKASKNVSTYVSWYQQKPGQAPRLLIYAASNRYTGIPARFSGSGSGTDFTLTISSLEPEDFAVYYCSQSYNYPYTFGQGTKLEIK | 9280 nM | 8.19 nM |
| M69: G1 variant: L1 R28N T30G; L2 L56I; H2 E54K A57N S58E; HC-FW3 L99T A100V (antibody, chains of the INN, looked up, variant L:R28N L:T30G L:L56I H:E54K H:A57N H:S58E H:L99T H:A100V, V domains shown) VH: EVQLVESGGGLVQPGGSLRLSCAASGFTFSNYWISWVRQAPGKGLEWVAEIRSKSDNEATHYAEAVKGRFTISRDNAKNSLYLQMNSLRAEDTAVYYCTVYFDYGLAIQNYWGQGTLVTVSS VL: EIVLTQSPATLSLSPGERATLSCKASKNVGTYVSWYQQKPGQAPRLLIYGASNRYIGIPARFSGSGSGTDFTLTISSLEPEDFAVYYCSQSYNYPYTFGQGTKLEIK | 101 nM | 4.58 nM |
| M73: G1 variant: L1 R28N T30G; L2 L56S; H2 E54K A57N S58Y E64D; HC-FW3 L99T A100V (antibody, chains of the INN, looked up, variant L:R28N L:T30G L:L56S H:E54K H:A57N H:S58Y H:E64D H:L99T H:A100V, V domains shown) VH: EVQLVESGGGLVQPGGSLRLSCAASGFTFSNYWISWVRQAPGKGLEWVAEIRSKSDNYATHYADAVKGRFTISRDNAKNSLYLQMNSLRAEDTAVYYCTVYFDYGLAIQNYWGQGTLVTVSS VL: EIVLTQSPATLSLSPGERATLSCKASKNVGTYVSWYQQKPGQAPRLLIYGASNRYSGIPARFSGSGSGTDFTLTISSLEPEDFAVYYCSQSYNYPYTFGQGTKLEIK | 167 nM | 1.59 nM |
| M67: G1 variant: L1 R28N T30G; L2 L56I; H2 E54K A57F; HC-FW3 L99T A100V (antibody, chains of the INN, looked up, variant L:R28N L:T30G L:L56I H:E54K H:A57F H:L99T H:A100V, V domains shown) VH: EVQLVESGGGLVQPGGSLRLSCAASGFTFSNYWISWVRQAPGKGLEWVAEIRSKSDFSATHYAEAVKGRFTISRDNAKNSLYLQMNSLRAEDTAVYYCTVYFDYGLAIQNYWGQGTLVTVSS VL: EIVLTQSPATLSLSPGERATLSCKASKNVGTYVSWYQQKPGQAPRLLIYGASNRYIGIPARFSGSGSGTDFTLTISSLEPEDFAVYYCSQSYNYPYTFGQGTKLEIK | 95 nM | 5.13 nM |
| M77: G1 variant: L1 R28N T30S; L2 G50A L56T; H2 E54K A57D; HC-FW3 L99T A100V (antibody, chains of the INN, looked up, variant L:R28N L:T30S L:G50A L:L56T H:E54K H:A57D H:L99T H:A100V, V domains shown) VH: EVQLVESGGGLVQPGGSLRLSCAASGFTFSNYWISWVRQAPGKGLEWVAEIRSKSDDSATHYAEAVKGRFTISRDNAKNSLYLQMNSLRAEDTAVYYCTVYFDYGLAIQNYWGQGTLVTVSS VL: EIVLTQSPATLSLSPGERATLSCKASKNVSTYVSWYQQKPGQAPRLLIYAASNRYTGIPARFSGSGSGTDFTLTISSLEPEDFAVYYCSQSYNYPYTFGQGTKLEIK | 794 nM | 2.98 nM |
| M75: G1 variant: L1 R28N T30G; L2 L56S; H2 E54K A57V; HC-FW3 L99T A100V (antibody, chains of the INN, looked up, variant L:R28N L:T30G L:L56S H:E54K H:A57V H:L99T H:A100V, V domains shown) VH: EVQLVESGGGLVQPGGSLRLSCAASGFTFSNYWISWVRQAPGKGLEWVAEIRSKSDVSATHYAEAVKGRFTISRDNAKNSLYLQMNSLRAEDTAVYYCTVYFDYGLAIQNYWGQGTLVTVSS VL: EIVLTQSPATLSLSPGERATLSCKASKNVGTYVSWYQQKPGQAPRLLIYGASNRYSGIPARFSGSGSGTDFTLTISSLEPEDFAVYYCSQSYNYPYTFGQGTKLEIK | 1040 nM | 7.25 nM |
| M62: G1 variant: L1 R28N T30G; L2 A51H L56T; H2 E54K A57N S58E; HC-FW3 L99T A100V (antibody, chains of the INN, looked up, variant L:R28N L:T30G L:A51H L:L56T H:E54K H:A57N H:S58E H:L99T H:A100V, V domains shown) VH: EVQLVESGGGLVQPGGSLRLSCAASGFTFSNYWISWVRQAPGKGLEWVAEIRSKSDNEATHYAEAVKGRFTISRDNAKNSLYLQMNSLRAEDTAVYYCTVYFDYGLAIQNYWGQGTLVTVSS VL: EIVLTQSPATLSLSPGERATLSCKASKNVGTYVSWYQQKPGQAPRLLIYGHSNRYTGIPARFSGSGSGTDFTLTISSLEPEDFAVYYCSQSYNYPYTFGQGTKLEIK | 242 nM | 5.86 nM |
| M84: G1 variant: L1 R28N T30V; L2 A51H L56T; H2 E54N A57N; HC-FW3 L99T A100V (antibody, chains of the INN, looked up, variant L:R28N L:T30V L:A51H L:L56T H:E54N H:A57N H:L99T H:A100V, V domains shown) VH: EVQLVESGGGLVQPGGSLRLSCAASGFTFSNYWISWVRQAPGKGLEWVAEIRSNSDNSATHYAEAVKGRFTISRDNAKNSLYLQMNSLRAEDTAVYYCTVYFDYGLAIQNYWGQGTLVTVSS VL: EIVLTQSPATLSLSPGERATLSCKASKNVVTYVSWYQQKPGQAPRLLIYGHSNRYTGIPARFSGSGSGTDFTLTISSLEPEDFAVYYCSQSYNYPYTFGQGTKLEIK | 978 nM | 6.75 nM |
| M74: G1 variant: L1 R28N T30G; L2 L56S; H2 E54K A57S; HC-FW3 L99T A100V (antibody, chains of the INN, looked up, variant L:R28N L:T30G L:L56S H:E54K H:A57S H:L99T H:A100V, V domains shown) VH: EVQLVESGGGLVQPGGSLRLSCAASGFTFSNYWISWVRQAPGKGLEWVAEIRSKSDSSATHYAEAVKGRFTISRDNAKNSLYLQMNSLRAEDTAVYYCTVYFDYGLAIQNYWGQGTLVTVSS VL: EIVLTQSPATLSLSPGERATLSCKASKNVGTYVSWYQQKPGQAPRLLIYGASNRYSGIPARFSGSGSGTDFTLTISSLEPEDFAVYYCSQSYNYPYTFGQGTKLEIK | 335 nM | 3.73 nM |
| M23: G1 variant: L1 R28G; HC-FW3 L99T A100V (antibody, chains of the INN, looked up, variant L:R28G H:L99T H:A100V, V domains shown) VH: EVQLVESGGGLVQPGGSLRLSCAASGFTFSNYWISWVRQAPGKGLEWVAEIRSESDASATHYAEAVKGRFTISRDNAKNSLYLQMNSLRAEDTAVYYCTVYFDYGLAIQNYWGQGTLVTVSS VL: EIVLTQSPATLSLSPGERATLSCKASKGVTTYVSWYQQKPGQAPRLLIYGASNRYLGIPARFSGSGSGTDFTLTISSLEPEDFAVYYCSQSYNYPYTFGQGTKLEIK | 44.4 nM | 0.81 nM |
